Results reported in publication PMC9482650, “Quantitative fragmentomics allow affinity mapping of interactomes” (Nature Communications, 2022).
Positions count from the first letter of the chain named.

B1: CLDN10, P78369 (peptide)
chain: SKQFDKNAYV
B2: HNRNPK, P61978;P61978-2 (peptide)
chain: VKQYADVEGF

Each binder was assayed against T1, PTPN13_1, Q12923 (assay: holdup assay). Conditions: plain residues with an end cap or a label only (N-terminal biotin on a linker: ado-ado).
T1 sequence (Q12923 1088-1188, limits assumed, looked up): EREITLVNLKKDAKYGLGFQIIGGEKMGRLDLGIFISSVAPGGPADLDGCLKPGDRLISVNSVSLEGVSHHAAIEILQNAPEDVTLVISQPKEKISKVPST
Design: key: below the threshold = too weak to quantify, mostly under pKd 3.1 to 4

pKd | Binder
below the threshold | B1
below the threshold | B2

These binders were tested against NHERF4_4, Q86UT5 (assay: holdup assay). Conditions: plain residues with an end cap or a label only (N-terminal biotin on a linker: ado-ado).
Design: key: below the threshold = too weak to quantify, mostly under pKd 3.1 to 4

Sequence of NHERF4_4, Q86UT5 (Q86UT5 464-550): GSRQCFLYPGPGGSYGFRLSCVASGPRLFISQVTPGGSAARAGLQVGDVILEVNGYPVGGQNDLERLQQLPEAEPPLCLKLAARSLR

pKd | Binder
below the threshold | B1

What follows are binders tested against NHERF2_2, Q15599 (assay: holdup assay). Conditions: plain residues with an end cap or a label only (N-terminal biotin on a linker: ado-ado).
Design: key: below the threshold = too weak to quantify, mostly under pKd 3.1 to 4

Sequence of NHERF2_2, Q15599 (Q15599 142-238): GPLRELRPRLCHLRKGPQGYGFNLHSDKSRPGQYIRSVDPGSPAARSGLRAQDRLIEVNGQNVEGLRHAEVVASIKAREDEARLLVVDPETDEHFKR

pKd | Binder
below the threshold | B1
below the threshold | B2

The binders below were run against GOPC, Q9HD26 (assay: holdup assay). Conditions: plain residues with an end cap or a label only (N-terminal biotin on a linker: ado-ado).
Design: key: below the threshold = too weak to quantify, mostly under pKd 3.1 to 4

pKd | Binder
below the threshold | B1
below the threshold | B2

These binders were tested against T2, LIN7A, O14910 (assay: holdup assay). Conditions: plain residues with an end cap or a label only (N-terminal biotin on a linker: ado-ado).
T2 sequence (O14910 103-200, limits assumed, looked up): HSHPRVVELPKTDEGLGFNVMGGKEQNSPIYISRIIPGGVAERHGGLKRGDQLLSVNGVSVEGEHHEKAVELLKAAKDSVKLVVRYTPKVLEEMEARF
Design: key: below the threshold = too weak to quantify, mostly under pKd 3.1 to 4

pKd | Binder
below the threshold | B1
below the threshold | B2

What follows are binders tested against ARHGEF12, Q9NZN5-2 (assay: holdup assay). Conditions: plain residues with an end cap or a label only (N-terminal biotin on a linker: ado-ado).
Design: key: below the threshold = too weak to quantify, mostly under pKd 3.1 to 4

Sequence of ARHGEF12, Q9NZN5-2 (Q9NZN5 other isoform, or with tags, fused parts or gaps): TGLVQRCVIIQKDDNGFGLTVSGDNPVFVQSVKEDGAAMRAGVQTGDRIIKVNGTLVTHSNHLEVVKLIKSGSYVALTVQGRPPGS

pKd | Binder
3.66 | B1
below the threshold | B2

Each binder was assayed against Inadl_5, Q8NI35 (assay: holdup assay). Conditions: plain residues with an end cap or a label only (N-terminal biotin on a linker: ado-ado).
Design: key: below the threshold = too weak to quantify, mostly under pKd 3.1 to 4

Sequence of Inadl_5, Q8NI35 (Q8NI35 673-780): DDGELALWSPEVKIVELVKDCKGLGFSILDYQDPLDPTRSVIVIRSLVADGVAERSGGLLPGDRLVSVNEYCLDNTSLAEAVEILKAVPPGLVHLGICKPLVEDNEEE

pKd | Binder
3.52 | B1
below the threshold | B2

These binders were tested against Inadl_10, Q8NI35 (assay: holdup assay). Conditions: plain residues with an end cap or a label only (N-terminal biotin on a linker: ado-ado).
Design: key: below the threshold = too weak to quantify, mostly under pKd 3.1 to 4

Sequence of Inadl_10, Q8NI35 (Q8NI35 1673-1763): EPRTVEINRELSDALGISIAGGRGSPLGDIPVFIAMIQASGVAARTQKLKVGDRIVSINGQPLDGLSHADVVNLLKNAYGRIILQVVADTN

pKd | Binder
below the threshold | B1
below the threshold | B2

The binders below were run against Inadl_9, Q8NI35 (assay: holdup assay). Conditions: plain residues with an end cap or a label only (N-terminal biotin on a linker: ado-ado).
Design: key: below the threshold = too weak to quantify, mostly under pKd 3.1 to 4

Sequence of Inadl_9, Q8NI35 (Q8NI35 1530-1615): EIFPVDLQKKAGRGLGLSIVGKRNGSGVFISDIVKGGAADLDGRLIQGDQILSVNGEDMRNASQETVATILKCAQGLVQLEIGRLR

pKd | Binder
below the threshold | B1
below the threshold | B2

What follows are binders tested against Inadl_1, Q8NI35 (assay: holdup assay). Conditions: plain residues with an end cap or a label only (N-terminal biotin on a linker: ado-ado).
Design: key: below the threshold = too weak to quantify, mostly under pKd 3.1 to 4

Sequence of Inadl_1, Q8NI35 (Q8NI35 113-229): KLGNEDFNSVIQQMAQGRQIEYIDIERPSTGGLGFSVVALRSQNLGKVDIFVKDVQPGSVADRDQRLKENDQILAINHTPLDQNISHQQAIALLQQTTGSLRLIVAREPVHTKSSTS

pKd | Binder
below the threshold | B1
below the threshold | B2

The binders below were run against T3, MPDZ_12, O75970 (assay: holdup assay). Conditions: plain residues with an end cap or a label only (N-terminal biotin on a linker: ado-ado).
T3 sequence (O75970 1857-1958, limits assumed, looked up): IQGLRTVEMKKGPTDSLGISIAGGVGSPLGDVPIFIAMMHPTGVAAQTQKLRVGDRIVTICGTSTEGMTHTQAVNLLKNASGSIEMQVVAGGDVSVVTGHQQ
Design: key: below the threshold = too weak to quantify, mostly under pKd 3.1 to 4

pKd | Binder
below the threshold | B1
below the threshold | B2

These binders were tested against DLG1_2, Q12959 (assay: holdup assay). Conditions: plain residues with an end cap or a label only (N-terminal biotin on a linker: ado-ado).
Design: key: below the threshold = too weak to quantify, mostly under pKd 3.1 to 4

Sequence of DLG1_2, Q12959 (Q12959 314-412): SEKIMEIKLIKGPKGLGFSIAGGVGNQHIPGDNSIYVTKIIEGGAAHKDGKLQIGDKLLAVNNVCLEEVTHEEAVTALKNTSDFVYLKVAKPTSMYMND

pKd | Binder
below the threshold | B1

These binders were tested against T4, DVL3, Q92997 (assay: holdup assay). Conditions: plain residues with an end cap or a label only (N-terminal biotin on a linker: ado-ado).
T4 sequence (Q92997 244-331, limits assumed, looked up): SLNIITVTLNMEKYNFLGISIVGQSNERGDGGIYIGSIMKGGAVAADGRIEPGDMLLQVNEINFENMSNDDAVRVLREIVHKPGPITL
Design: key: below the threshold = too weak to quantify, mostly under pKd 3.1 to 4

pKd | Binder
below the threshold | B1
below the threshold | B2

The binders below were run against MAGI2_2, Q86UL8 (assay: holdup assay). Conditions: plain residues with an end cap or a label only (N-terminal biotin on a linker: ado-ado).
Design: key: below the threshold = too weak to quantify, mostly under pKd 3.1 to 4

Sequence of MAGI2_2, Q86UL8 (Q86UL8 410-522): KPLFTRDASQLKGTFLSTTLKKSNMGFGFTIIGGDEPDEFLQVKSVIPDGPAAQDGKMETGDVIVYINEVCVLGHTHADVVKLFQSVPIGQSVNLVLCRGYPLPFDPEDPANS

pKd | Binder
below the threshold | B1

Each binder was assayed against T5, DLG3_3, Q92796 (assay: holdup assay). Conditions: plain residues with an end cap or a label only (N-terminal biotin on a linker: ado-ado).
T5 sequence (Q92796 374-475, limits assumed, looked up): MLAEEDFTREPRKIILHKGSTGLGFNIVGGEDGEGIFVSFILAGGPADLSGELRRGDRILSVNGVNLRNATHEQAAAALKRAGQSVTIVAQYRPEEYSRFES
Design: key: below the threshold = too weak to quantify, mostly under pKd 3.1 to 4

pKd | Binder
below the threshold | B1
below the threshold | B2

Each binder was assayed against T6, PCLO, Q9Y6V0 (assay: holdup assay). Conditions: plain residues with an end cap or a label only (N-terminal biotin on a linker: ado-ado).
T6 sequence (Q9Y6V0 4491-4600, limits assumed, looked up): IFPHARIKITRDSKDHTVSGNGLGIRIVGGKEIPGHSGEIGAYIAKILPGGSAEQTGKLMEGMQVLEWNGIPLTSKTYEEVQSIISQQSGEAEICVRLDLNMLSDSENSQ
Design: key: below the threshold = too weak to quantify, mostly under pKd 3.1 to 4

pKd | Binder
below the threshold | B1
below the threshold | B2

These binders were tested against GRASP, Q7Z6J2 (assay: holdup assay). Conditions: plain residues with an end cap or a label only (N-terminal biotin on a linker: ado-ado).
Design: key: below the threshold = too weak to quantify, mostly under pKd 3.1 to 4

Sequence of GRASP, Q7Z6J2 (Q7Z6J2 96-193): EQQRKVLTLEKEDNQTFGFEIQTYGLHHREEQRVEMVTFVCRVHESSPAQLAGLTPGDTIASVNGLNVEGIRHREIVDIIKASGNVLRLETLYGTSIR

pKd | Binder
3.56 | B1

What follows are binders tested against LNX1_1, Q8TBB1 (assay: holdup assay). Conditions: plain residues with an end cap or a label only (N-terminal biotin on a linker: ado-ado).
Design: key: below the threshold = too weak to quantify, mostly under pKd 3.1 to 4

Sequence of LNX1_1, Q8TBB1 (Q8TBB1 261-371): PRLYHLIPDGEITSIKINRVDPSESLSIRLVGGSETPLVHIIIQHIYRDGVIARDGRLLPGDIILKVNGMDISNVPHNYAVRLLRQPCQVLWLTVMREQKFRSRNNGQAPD

pKd | Binder
below the threshold | B1
below the threshold | B2

These binders were tested against T7, TX1BP3, O14907 (assay: holdup assay). Conditions: plain residues with an end cap or a label only (N-terminal biotin on a linker: ado-ado).
T7 sequence (O14907 10-122, limits assumed, looked up): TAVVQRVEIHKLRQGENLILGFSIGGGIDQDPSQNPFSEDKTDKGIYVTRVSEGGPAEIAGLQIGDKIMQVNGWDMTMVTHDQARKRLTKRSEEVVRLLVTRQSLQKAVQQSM
Design: key: below the threshold = too weak to quantify, mostly under pKd 3.1 to 4

pKd | Binder
below the threshold | B1
3.97 | B2

The binders below were run against MAGI2_6, Q86UL8 (assay: holdup assay). Conditions: plain residues with an end cap or a label only (N-terminal biotin on a linker: ado-ado).
Design: key: below the threshold = too weak to quantify, mostly under pKd 3.1 to 4

Sequence of MAGI2_6, Q86UL8 (Q86UL8 1141-1229): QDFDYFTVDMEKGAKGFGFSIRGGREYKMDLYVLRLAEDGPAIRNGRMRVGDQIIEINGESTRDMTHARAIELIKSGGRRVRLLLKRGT

pKd | Binder
below the threshold | B1
below the threshold | B2

What follows are binders tested against T8, SHANK1, Q9Y566 (assay: holdup assay). Conditions: plain residues with an end cap or a label only (N-terminal biotin on a linker: ado-ado).
T8 sequence (Q9Y566 658-767, limits assumed, looked up): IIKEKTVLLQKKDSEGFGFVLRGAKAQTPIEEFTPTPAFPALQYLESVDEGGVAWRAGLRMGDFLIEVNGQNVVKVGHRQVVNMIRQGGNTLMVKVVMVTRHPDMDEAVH
Design: key: below the threshold = too weak to quantify, mostly under pKd 3.1 to 4

pKd | Binder
below the threshold | B1
below the threshold | B2

The binders below were run against GRID2IP_1, A4D2P6 (assay: holdup assay). Conditions: plain residues with an end cap or a label only (N-terminal biotin on a linker: ado-ado).
Design: key: below the threshold = too weak to quantify, mostly under pKd 3.1 to 4

Sequence of GRID2IP_1, A4D2P6 (A4D2P6 1-87): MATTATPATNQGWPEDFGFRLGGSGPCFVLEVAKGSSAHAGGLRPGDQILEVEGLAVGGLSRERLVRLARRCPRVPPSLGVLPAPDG

pKd | Binder
below the threshold | B1
below the threshold | B2

Each binder was assayed against GORASP2, Q9H8Y8 (assay: holdup assay). Conditions: plain residues with an end cap or a label only (N-terminal biotin on a linker: ado-ado).
Design: key: below the threshold = too weak to quantify, mostly under pKd 3.1 to 4

pKd | Binder
below the threshold | B1
below the threshold | B2

What follows are binders tested against MAST2, Q6P0Q8 (assay: holdup assay). Conditions: plain residues with an end cap or a label only (N-terminal biotin on a linker: ado-ado).
Design: key: below the threshold = too weak to quantify, mostly under pKd 3.1 to 4

Sequence of MAST2, Q6P0Q8 (Q6P0Q8 1099-1202): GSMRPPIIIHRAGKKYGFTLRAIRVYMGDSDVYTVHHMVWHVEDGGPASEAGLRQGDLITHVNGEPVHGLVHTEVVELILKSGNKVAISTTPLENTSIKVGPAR

pKd | Binder
4.02 | B1

The binders below were run against T9, DLG3_1, Q92796 (assay: holdup assay). Conditions: plain residues with an end cap or a label only (N-terminal biotin on a linker: ado-ado).
T9 sequence (Q92796 125-227, limits assumed, looked up): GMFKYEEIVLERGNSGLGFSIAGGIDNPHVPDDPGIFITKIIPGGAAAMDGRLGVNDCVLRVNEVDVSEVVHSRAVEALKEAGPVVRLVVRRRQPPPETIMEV
Design: key: below the threshold = too weak to quantify, mostly under pKd 3.1 to 4

pKd | Binder
below the threshold | B1
below the threshold | B2

Each binder was assayed against FRMPD2_1, Q68DX3 (assay: holdup assay). Conditions: plain residues with an end cap or a label only (N-terminal biotin on a linker: ado-ado).
Design: key: below the threshold = too weak to quantify, mostly under pKd 3.1 to 4

Sequence of FRMPD2_1, Q68DX3 (Q68DX3 770-861): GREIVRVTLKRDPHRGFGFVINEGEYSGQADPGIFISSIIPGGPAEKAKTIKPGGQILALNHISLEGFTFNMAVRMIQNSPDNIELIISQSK

pKd | Binder
below the threshold | B1
below the threshold | B2

These binders were tested against DLG5_1, Q8TDM6 (assay: holdup assay). Conditions: plain residues with an end cap or a label only (N-terminal biotin on a linker: ado-ado).
Design: key: below the threshold = too weak to quantify, mostly under pKd 3.1 to 4

Sequence of DLG5_1, Q8TDM6 (Q8TDM6 617-713): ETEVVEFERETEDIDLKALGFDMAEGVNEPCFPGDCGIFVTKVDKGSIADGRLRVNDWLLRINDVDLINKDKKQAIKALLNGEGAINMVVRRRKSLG

pKd | Binder
below the threshold | B1
below the threshold | B2

These binders were tested against T10, LIN7B, Q9HAP6 (assay: holdup assay). Conditions: plain residues with an end cap or a label only (N-terminal biotin on a linker: ado-ado).
T10 sequence (Q9HAP6 88-185, limits assumed, looked up): T2 sequence (O14910 103-200, limits assumed, looked up) with S2A, V20I, I35V, E42D, H65Q, K77Q, D78G, K89R
Design: key: below the threshold = too weak to quantify, mostly under pKd 3.1 to 4

pKd | Binder
below the threshold | B1
